Measurements taken from paper doi:10.1101/2021.11.25.470006 (bioRxiv, 2021).

Legend:
Experiment in all cases: cryo-EM structure
[1] = molecular target: T1, Smc5 (Walker B mutant E1015Q) (S. cerevisiae, UniProt Q08204 1-1093, E1015Q, BS3-crosslinked within the holo-complex)
T1 sequence: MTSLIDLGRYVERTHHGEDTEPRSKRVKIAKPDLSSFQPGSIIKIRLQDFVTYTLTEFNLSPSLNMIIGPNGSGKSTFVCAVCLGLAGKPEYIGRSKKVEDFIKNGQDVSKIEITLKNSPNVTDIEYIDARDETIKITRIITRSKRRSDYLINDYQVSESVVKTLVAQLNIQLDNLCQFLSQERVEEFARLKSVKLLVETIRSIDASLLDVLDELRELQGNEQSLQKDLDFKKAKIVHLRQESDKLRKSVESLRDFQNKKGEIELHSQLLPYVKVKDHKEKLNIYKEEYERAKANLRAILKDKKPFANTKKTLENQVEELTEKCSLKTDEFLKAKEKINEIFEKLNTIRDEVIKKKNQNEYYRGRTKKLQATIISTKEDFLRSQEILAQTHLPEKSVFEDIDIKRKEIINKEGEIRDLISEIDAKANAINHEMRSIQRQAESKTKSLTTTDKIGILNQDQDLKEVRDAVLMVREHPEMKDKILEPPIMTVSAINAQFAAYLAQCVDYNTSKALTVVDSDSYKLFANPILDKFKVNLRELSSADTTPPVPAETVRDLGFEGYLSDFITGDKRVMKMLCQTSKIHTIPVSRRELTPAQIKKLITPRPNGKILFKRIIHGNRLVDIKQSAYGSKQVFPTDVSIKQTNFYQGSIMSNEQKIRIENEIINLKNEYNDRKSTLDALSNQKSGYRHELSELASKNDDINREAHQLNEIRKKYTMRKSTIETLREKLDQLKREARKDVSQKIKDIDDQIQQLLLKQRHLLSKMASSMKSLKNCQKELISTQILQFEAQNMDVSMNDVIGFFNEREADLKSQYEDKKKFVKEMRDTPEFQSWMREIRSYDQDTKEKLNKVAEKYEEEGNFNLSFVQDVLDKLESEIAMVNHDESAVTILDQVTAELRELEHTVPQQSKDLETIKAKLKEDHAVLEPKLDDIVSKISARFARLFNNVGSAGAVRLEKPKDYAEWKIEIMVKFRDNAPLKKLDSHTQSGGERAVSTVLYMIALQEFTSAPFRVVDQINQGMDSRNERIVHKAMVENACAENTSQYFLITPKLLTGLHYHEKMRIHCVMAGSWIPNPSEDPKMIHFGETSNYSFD

Nse1 = molecular target: T2, Nse1 (S. cerevisiae, UniProt Q07913 1-336, BS3-crosslinked within the holo-complex)
T2 sequence: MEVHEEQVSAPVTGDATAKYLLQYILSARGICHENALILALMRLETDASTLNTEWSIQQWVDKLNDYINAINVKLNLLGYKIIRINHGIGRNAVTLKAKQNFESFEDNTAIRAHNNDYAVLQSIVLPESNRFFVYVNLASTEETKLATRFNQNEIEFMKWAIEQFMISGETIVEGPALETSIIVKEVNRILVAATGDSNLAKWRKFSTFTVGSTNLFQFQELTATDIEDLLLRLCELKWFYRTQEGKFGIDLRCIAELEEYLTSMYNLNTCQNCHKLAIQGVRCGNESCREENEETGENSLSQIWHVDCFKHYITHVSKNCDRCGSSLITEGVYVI

Nse4 (HALO-tagged) = molecular target: T3, Nse4 (HALO-tagged) (S. cerevisiae, UniProt P43124 1-402, BS3-crosslinked within the holo-complex)
T3 sequence: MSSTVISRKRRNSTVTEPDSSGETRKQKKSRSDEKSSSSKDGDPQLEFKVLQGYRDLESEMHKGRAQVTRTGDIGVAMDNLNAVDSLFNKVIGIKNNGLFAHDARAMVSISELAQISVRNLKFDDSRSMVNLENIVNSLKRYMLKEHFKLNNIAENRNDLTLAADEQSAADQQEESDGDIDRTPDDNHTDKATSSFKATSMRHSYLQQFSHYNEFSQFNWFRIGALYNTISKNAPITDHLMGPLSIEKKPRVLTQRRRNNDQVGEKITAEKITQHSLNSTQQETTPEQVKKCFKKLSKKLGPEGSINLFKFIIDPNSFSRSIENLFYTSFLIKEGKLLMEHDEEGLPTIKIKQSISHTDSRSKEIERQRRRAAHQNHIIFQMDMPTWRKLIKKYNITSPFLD

- binding result [1]: binds
- binding result (Nse1): binds
- binding result (Nse4 (HALO-tagged)): binds
B1: Nse3 (natural protein, S. cerevisiae)
chain: MSSIDNDSDVDLTEDLAVAKIVKENPVARKMVRYILSRGESQNSIITRNKLQSVIHEAAREENIAKPSFSKMFMDINAILYNVYGFELQGLPSKNNMNAGGNGSNSNTNKSMPEPLGHRAQKFILLNNVPHSKNFDDFKILQSAHTYEELIVTGEYIGDDIASGTSNTLESKLSTDRDLVYKGVLSVILCIVFFSKNNILHQELIKFLETFGIPSDGSKIAILNITIEDLIKSLEKREYIVRLEEKSDTDGEVISYRIGRRTQAELGLESLEKLVQEIMGLEKEQTKSLHDDIIKSIGDSYSI
modifications: BS3-crosslinked within the holo-complex
